{"source": "paper PMC2481429"}
{"molecular_target": "U2AF65 (Homo sapiens) (UniProt P26368)", "sequence (P26368 whole entry, one chain of several)": "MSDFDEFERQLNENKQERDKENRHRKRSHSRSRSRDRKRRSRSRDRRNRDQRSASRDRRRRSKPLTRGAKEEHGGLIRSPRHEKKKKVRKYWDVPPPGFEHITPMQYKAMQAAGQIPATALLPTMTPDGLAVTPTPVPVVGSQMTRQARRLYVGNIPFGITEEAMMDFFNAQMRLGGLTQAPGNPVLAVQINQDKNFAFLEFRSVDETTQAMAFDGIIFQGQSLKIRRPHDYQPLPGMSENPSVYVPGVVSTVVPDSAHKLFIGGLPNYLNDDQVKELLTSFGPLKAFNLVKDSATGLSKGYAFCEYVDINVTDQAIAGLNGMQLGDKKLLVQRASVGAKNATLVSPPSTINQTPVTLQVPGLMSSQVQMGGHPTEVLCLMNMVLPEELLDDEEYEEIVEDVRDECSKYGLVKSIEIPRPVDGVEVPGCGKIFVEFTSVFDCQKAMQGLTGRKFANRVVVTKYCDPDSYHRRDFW", "test": "EMSA", "settings": "Gel shift with constant 5'-32P RNA and varying U2AF65, triplicate; buffer, salt, pH and temperature not given (as previously described, ref 49)", "units": {"Kd": "nM"}}
{"sequence": "GCCCUGACCCCUUCCACCCGCUGCAG [LCAT intron 4 PY tract]", "Kd": 1900}
{"sequence": "UCACCACUCCUUUCUCUUUCAUUCAG [U2AF2 intron 6 PY tract]", "Kd": 80}
{"sequence": "UUCGUGCUGACCCUGUCCCUUUUUUUUCCACAGCUGCA [ADML PY tract]", "Kd": 120}
{"sequence": "CAAAGGCGUUGGUUUUGUUUCCACAG [INSR intron 10 PY tract]", "Kd": 8800}
{"sequence": "CCGCCCACCCCCUCCCCUCACCGCAG [BRUNOL4 intron 9 PY tract]", "Kd": 3400}
{"sequence": "UUCGUGCUGACCCUGUCCCGUAUUAGUCCACAGCUGCA [ADMLmut PY tract]", "Kd": 15800}
{"sequence": "UAAUUCUUUUUUUCUUUCUGCCCUAG [SR140 intron 9 PY tract]", "Kd": 30}
{"sequence": "GCCCUGACCCCUUUUUUUUGCUGCAG [LCATmut intron 4 PY tract]", "Kd": 120}
{"molecular_target": "U2AF65 (Homo sapiens) (UniProt P26368)", "test": "EMSA", "settings": "estimated (asterisk), saturation not reached; Gel shift with constant 5'-32P RNA and varying U2AF65, triplicate; buffer, salt, pH and temperature not given (as previously described, ref 49)", "units": {"Kd": "nM"}}
{"sequence": "CCCUGGCUCACUCCCCUGCCCUGCAG [ITGB4 intron 31 PY tract]", "Kd": 52000}
{"molecular_target": "U2AF65 (Homo sapiens) (UniProt P26368)", "test": "EMSA", "settings": "estimated (asterisk); no detectable binding at concentrations tested; Gel shift with constant 5'-32P RNA and varying U2AF65, triplicate; buffer, salt, pH and temperature not given (as previously described, ref 49)", "units": {"Kd": "nM"}}
{"sequence": "CAUGUGCUCGCUGCCUGCUAAUUAAG [MBNL1 intron 6 PY tract]", "Kd": 100000}
